Test results published in EP4538288A1.
pEC50: −log10 of the molar value.

Molecular target: cynomolgus CD40 overexpressed on CHO cells (cynomolgus) [GFP: P42212]
Assay: flow cytometry on CHO cells expressing cynomolgus CD40

CP870893-IgG2 (antibody)
pEC50: 8.14
